Source: US20220169728A1 (AB THERAPEUTICS, published 2022)

Each binder was assayed against CD3 (Homo sapiens (Human), UniProt P07766 23-207; P04234 22-171; P09693 23-182) (assay: cell-based or functional assay).
Sequence of CD3 (P07766 23-207 limits assumed, chain 1 of 3): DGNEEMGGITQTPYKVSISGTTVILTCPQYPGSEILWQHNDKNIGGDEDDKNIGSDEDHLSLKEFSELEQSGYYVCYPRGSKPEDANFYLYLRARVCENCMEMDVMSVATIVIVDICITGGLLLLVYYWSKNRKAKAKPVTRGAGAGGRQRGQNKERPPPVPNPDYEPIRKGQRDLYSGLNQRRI
Sequence of CD3 (P04234 22-171 limits assumed, chain 2 of 3): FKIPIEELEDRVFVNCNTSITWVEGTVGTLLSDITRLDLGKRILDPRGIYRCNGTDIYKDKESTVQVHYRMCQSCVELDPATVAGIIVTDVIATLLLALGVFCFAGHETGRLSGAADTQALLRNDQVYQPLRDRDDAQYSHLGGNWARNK
Sequence of CD3 (P09693 23-182 limits assumed, chain 3 of 3): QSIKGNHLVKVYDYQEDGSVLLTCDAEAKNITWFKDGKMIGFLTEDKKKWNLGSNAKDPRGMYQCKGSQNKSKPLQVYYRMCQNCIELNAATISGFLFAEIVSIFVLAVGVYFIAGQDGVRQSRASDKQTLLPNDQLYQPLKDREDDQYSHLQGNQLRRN

| Binder | Function % 0.025 ug/ml (T cell activation, CD69 on Jurkat cells with Raji cells, against the unmutated baseline) [%] | Function % 2 ug/ml (T cell activation, CD69 on Jurkat cells with Raji cells, against the unmutated baseline) [%] |
| --- | --- | --- |
| CD20/CD3 BsMab with common VL (SEQ ID NO: 3) Q88Y (bispecific antibody, V domains shown) VH 1: QVQLQQPGAELVKPGASVKMSCKASGYTFTSYNMHWVKQTPGRGLEWIGAIYPGNGDTSYNQKFKGKATLTADKSSSTAYMQLSSLRSEDSAVYYCARSTYYGGDWYFNVWGAGTTVTVSA VH 2: EVQLQESGAELARPGASVKMSCKASGYTFTSYTMHWVKQRPGEGLEWIGYINPSSGYTKYNQKFKDKATLTADKSSSTAYMELSSLTSEDSAVYYCARWQDYDVYFDYWGEGTTLTVSS VL: QIVLSQSPAILSASPGEKVTMTCRASSSVSYIHWFQQKPGSSPKPWIYATSNLASGVPVRFSGSGSGTSYSLTISRVEAEDAATYYCYQWTSNPPTFGGGTKLEIKR | 8 | 21 |
| CD20/CD3 BsMab with common VL (SEQ ID NO: 3) Q88G (bispecific antibody, V domains shown) VH 1: QVQLQQPGAELVKPGASVKMSCKASGYTFTSYNMHWVKQTPGRGLEWIGAIYPGNGDTSYNQKFKGKATLTADKSSSTAYMQLSSLRSEDSAVYYCARSTYYGGDWYFNVWGAGTTVTVSA VH 2: EVQLQESGAELARPGASVKMSCKASGYTFTSYTMHWVKQRPGEGLEWIGYINPSSGYTKYNQKFKDKATLTADKSSSTAYMELSSLTSEDSAVYYCARWQDYDVYFDYWGEGTTLTVSS VL: QIVLSQSPAILSASPGEKVTMTCRASSSVSYIHWFQQKPGSSPKPWIYATSNLASGVPVRFSGSGSGTSYSLTISRVEAEDAATYYCGQWTSNPPTFGGGTKLEIKR | 8 | 39 |
| CD20/CD3 BsMab with common VL (SEQ ID NO: 3) Q88H (bispecific antibody, V domains shown) VH 1: QVQLQQPGAELVKPGASVKMSCKASGYTFTSYNMHWVKQTPGRGLEWIGAIYPGNGDTSYNQKFKGKATLTADKSSSTAYMQLSSLRSEDSAVYYCARSTYYGGDWYFNVWGAGTTVTVSA VH 2: EVQLQESGAELARPGASVKMSCKASGYTFTSYTMHWVKQRPGEGLEWIGYINPSSGYTKYNQKFKDKATLTADKSSSTAYMELSSLTSEDSAVYYCARWQDYDVYFDYWGEGTTLTVSS VL: QIVLSQSPAILSASPGEKVTMTCRASSSVSYIHWFQQKPGSSPKPWIYATSNLASGVPVRFSGSGSGTSYSLTISRVEAEDAATYYCHQWTSNPPTFGGGTKLEIKR | 12 | 36 |
| CD20/CD3 BsMab with common VL (SEQ ID NO: 3) Q88L (bispecific antibody, V domains shown) VH 1: QVQLQQPGAELVKPGASVKMSCKASGYTFTSYNMHWVKQTPGRGLEWIGAIYPGNGDTSYNQKFKGKATLTADKSSSTAYMQLSSLRSEDSAVYYCARSTYYGGDWYFNVWGAGTTVTVSA VH 2: EVQLQESGAELARPGASVKMSCKASGYTFTSYTMHWVKQRPGEGLEWIGYINPSSGYTKYNQKFKDKATLTADKSSSTAYMELSSLTSEDSAVYYCARWQDYDVYFDYWGEGTTLTVSS VL: QIVLSQSPAILSASPGEKVTMTCRASSSVSYIHWFQQKPGSSPKPWIYATSNLASGVPVRFSGSGSGTSYSLTISRVEAEDAATYYCLQWTSNPPTFGGGTKLEIKR | 8 | 55 |
| CD20/CD3 BsMab with common VL (SEQ ID NO: 3) Q88M (bispecific antibody, V domains shown) VH 1: QVQLQQPGAELVKPGASVKMSCKASGYTFTSYNMHWVKQTPGRGLEWIGAIYPGNGDTSYNQKFKGKATLTADKSSSTAYMQLSSLRSEDSAVYYCARSTYYGGDWYFNVWGAGTTVTVSA VH 2: EVQLQESGAELARPGASVKMSCKASGYTFTSYTMHWVKQRPGEGLEWIGYINPSSGYTKYNQKFKDKATLTADKSSSTAYMELSSLTSEDSAVYYCARWQDYDVYFDYWGEGTTLTVSS VL: QIVLSQSPAILSASPGEKVTMTCRASSSVSYIHWFQQKPGSSPKPWIYATSNLASGVPVRFSGSGSGTSYSLTISRVEAEDAATYYCMQWTSNPPTFGGGTKLEIKR | 27 | 95 |
| CD20/CD3 BsMab with common VL (SEQ ID NO: 3) N93C (bispecific antibody, V domains shown) VH 1: QVQLQQPGAELVKPGASVKMSCKASGYTFTSYNMHWVKQTPGRGLEWIGAIYPGNGDTSYNQKFKGKATLTADKSSSTAYMQLSSLRSEDSAVYYCARSTYYGGDWYFNVWGAGTTVTVSA VH 2: EVQLQESGAELARPGASVKMSCKASGYTFTSYTMHWVKQRPGEGLEWIGYINPSSGYTKYNQKFKDKATLTADKSSSTAYMELSSLTSEDSAVYYCARWQDYDVYFDYWGEGTTLTVSS VL: QIVLSQSPAILSASPGEKVTMTCRASSSVSYIHWFQQKPGSSPKPWIYATSNLASGVPVRFSGSGSGTSYSLTISRVEAEDAATYYCQQWTSCPPTFGGGTKLEIKR | 16 | 77 |
| CD20/CD3 BsMab with common VL (SEQ ID NO: 3) Q88P (bispecific antibody, V domains shown) VH 1: QVQLQQPGAELVKPGASVKMSCKASGYTFTSYNMHWVKQTPGRGLEWIGAIYPGNGDTSYNQKFKGKATLTADKSSSTAYMQLSSLRSEDSAVYYCARSTYYGGDWYFNVWGAGTTVTVSA VH 2: EVQLQESGAELARPGASVKMSCKASGYTFTSYTMHWVKQRPGEGLEWIGYINPSSGYTKYNQKFKDKATLTADKSSSTAYMELSSLTSEDSAVYYCARWQDYDVYFDYWGEGTTLTVSS VL: QIVLSQSPAILSASPGEKVTMTCRASSSVSYIHWFQQKPGSSPKPWIYATSNLASGVPVRFSGSGSGTSYSLTISRVEAEDAATYYCPQWTSNPPTFGGGTKLEIKR | 7 | 16 |

What follows are binders tested against T1, CD55 (UniProt P08174 35-353, limits assumed) (assay: binding at 5 µg/ml against the unmutated antibody (SEQ ID NO: 14 + 15); format not stated).
T1 construct: whole, on cells; also called CD55 on Rituximab resistant Raji cells (RRCL)
T1 sequence (looked up): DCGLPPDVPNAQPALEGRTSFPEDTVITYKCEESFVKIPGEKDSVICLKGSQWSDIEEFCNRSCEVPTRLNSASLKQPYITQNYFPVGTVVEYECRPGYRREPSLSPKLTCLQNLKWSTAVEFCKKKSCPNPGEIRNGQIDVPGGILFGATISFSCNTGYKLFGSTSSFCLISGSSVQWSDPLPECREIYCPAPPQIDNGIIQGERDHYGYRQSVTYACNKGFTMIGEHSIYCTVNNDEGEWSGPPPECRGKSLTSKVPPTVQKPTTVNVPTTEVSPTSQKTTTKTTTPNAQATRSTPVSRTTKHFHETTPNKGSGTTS

| Binder | Function remaining percentage (5 µg/ml) [%] |
| --- | --- |
| anti-CD55 antibody with CD55VH (SEQ ID NO: 14) N52C and VL (SEQ ID NO: 15) (antibody, V domains shown, also called Test 3) VH: QVKLQESGGGLVQPGGSLKLSCAASGFTFSGYGMSWIRQTPDKRLEWVATICSGGSYTYYSDSVKGRFTISRDNVKNTLYLQMSSLKSEDTAMYYCARRNGTLYYYLMDYWGRGTLVTVSS VL: QSVLTQPPSASGSPGQSVTISCTGTSSDVGGYNYVSWYQQHPGKAPKFMIYDVSKRPSGVSNRFSGSKSGNTASLTISGVQAEDEADYYCSSYTSASTVIFGGGTKLTVL | 32 |
| anti-CD55 antibody with CD55VH (SEQ ID NO: 14) N52G and VL (SEQ ID NO: 15) (antibody, V domains shown, also called Test 4) VH: QVKLQESGGGLVQPGGSLKLSCAASGFTFSGYGMSWIRQTPDKRLEWVATIGSGGSYTYYSDSVKGRFTISRDNVKNTLYLQMSSLKSEDTAMYYCARRNGTLYYYLMDYWGRGTLVTVSS VL: QSVLTQPPSASGSPGQSVTISCTGTSSDVGGYNYVSWYQQHPGKAPKFMIYDVSKRPSGVSNRFSGSKSGNTASLTISGVQAEDEADYYCSSYTSASTVIFGGGTKLTVL | 28 |
| anti-CD55 antibody with CD55VH (SEQ ID NO: 14) N52L and VL (SEQ ID NO: 15) (antibody, V domains shown, also called Test 10) VH: QVKLQESGGGLVQPGGSLKLSCAASGFTFSGYGMSWIRQTPDKRLEWVATILSGGSYTYYSDSVKGRFTISRDNVKNTLYLQMSSLKSEDTAMYYCARRNGTLYYYLMDYWGRGTLVTVSS VL: QSVLTQPPSASGSPGQSVTISCTGTSSDVGGYNYVSWYQQHPGKAPKFMIYDVSKRPSGVSNRFSGSKSGNTASLTISGVQAEDEADYYCSSYTSASTVIFGGGTKLTVL | 15 |
| anti-CD55 antibody with CD55VH (SEQ ID NO: 14) N52E and VL (SEQ ID NO: 15) (antibody, V domains shown, also called Test 6) VH: QVKLQESGGGLVQPGGSLKLSCAASGFTFSGYGMSWIRQTPDKRLEWVATIESGGSYTYYSDSVKGRFTISRDNVKNTLYLQMSSLKSEDTAMYYCARRNGTLYYYLMDYWGRGTLVTVSS VL: QSVLTQPPSASGSPGQSVTISCTGTSSDVGGYNYVSWYQQHPGKAPKFMIYDVSKRPSGVSNRFSGSKSGNTASLTISGVQAEDEADYYCSSYTSASTVIFGGGTKLTVL | 21 |
